Data on one substance can be found in paper PMC3868960.

The target of the test is tumor necrosis factor-related apoptosis-inducing ligand (TRAIL) (human) (UniProt P50591). Put plainly: non-reducing SDS-PAGE.

“tumor necrosis factor-related apoptosis-inducing ligand (TRAIL) (from UniProt P50591 1-281)”: the percent dimer is 27.2%, the percent monomer is 70.1% and the percent trimer was found to be 2.62%.
